Laboratory results: US20030207791A1, “Materials and methods relating to the treatment of leukaemias” (priority 2000, published 2003)

T1: GST-NCoR (Mus musculus, UniProt Q60974)
T1 construct: made in house
T1 sequence (Q60974 1782-2453): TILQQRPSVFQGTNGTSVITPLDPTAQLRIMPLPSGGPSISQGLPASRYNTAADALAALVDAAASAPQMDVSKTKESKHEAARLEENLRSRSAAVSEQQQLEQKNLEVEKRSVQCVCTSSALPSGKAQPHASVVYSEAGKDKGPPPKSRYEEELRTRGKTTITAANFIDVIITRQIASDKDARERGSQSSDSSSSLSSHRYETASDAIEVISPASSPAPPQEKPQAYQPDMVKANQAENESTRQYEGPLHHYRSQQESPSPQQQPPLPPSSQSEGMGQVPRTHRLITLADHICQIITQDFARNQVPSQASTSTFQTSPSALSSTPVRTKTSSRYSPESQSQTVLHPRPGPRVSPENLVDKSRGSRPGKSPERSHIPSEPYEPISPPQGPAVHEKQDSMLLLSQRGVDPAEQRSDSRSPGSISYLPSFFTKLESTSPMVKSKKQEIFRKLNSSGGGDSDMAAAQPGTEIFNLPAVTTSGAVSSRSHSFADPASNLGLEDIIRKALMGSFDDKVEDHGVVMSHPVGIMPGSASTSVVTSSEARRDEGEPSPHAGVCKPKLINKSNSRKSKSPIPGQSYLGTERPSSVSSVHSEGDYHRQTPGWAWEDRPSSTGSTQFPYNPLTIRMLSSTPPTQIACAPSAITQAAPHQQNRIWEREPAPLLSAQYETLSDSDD


Key:
GST-NCoR = target: T1, GST-NCoR; test: GST-NCoR pull-down assay with in vitro translated 35S labelled proteins; type: binding; settings: increasing amounts of GST-NCoR
Description: FIG. 1. Enhanced recruitment of NCoR by PML-RAR is due to the coiled coil region of PML. Increasing amounts of GST -NCoR (from 150 ng to 10 μg) coupled to agarose beads were incubated with the indicated in vitro translated, ^35-S labelled proteins. On the left, a schematic representation of the in vitro translated products, with the tripartite motif of PML highlighted (R, RING finger; B, B boxes; CC, coiled coil). The input lanes are loaded with the same amounts used in the pull-down experiments.
Recruitment of the NCoR-HDAC complex is crucial for the transforming potential of PML-RAR. At low concentrations of RA (1-100 nM), the stability of the PML-RAR-NCoR complex is higher than that of the RAR-NCoR complex (Grignani et al., 1998; He et al., 1998; Lin et al., 1998). […] Pull-down assays were performed by incubation of in vitro translated, ^35S labelled PML-RAR or RAR with GST-NCoR coupled to agarose beads.
GST-NCoR (1782-2453) or GST-NCoR (RDIII) purification and in vitro interaction experiments were performed as described, incubating the indicated amounts of GST-NCoR attached to a constant amount of glutathione-agarose beads in the presence of the appropriate ^35-S labelled, in vitro translated proteins(Gelmetti et al., 1998; Grignani et al., 1998; Zamir et al., 1996). The input lanes represent 100% of the total. Coimmunoprecipitation experiments were performed as described(Gelmetti et al., 1998), using extracts from transiently transfected COS-1 cells, or in vitro translated products.

[1] = test system: murine hematopoietic progenitors (lin-); test: In vitro differentiation of murine hematopoietic progenitor cells transduced with retroviral constructs; type: cell-based; settings: for effect on differentiation of transduced progenitors: compared with control cells
Description: FIG. 5. A heterologous oligomerization domain activates the transforming potential of RAR. (A-B) p53-RAR form oligomers. (A) Nuclear extracts from COS-1 cells transfected with expression vectors for p53-RAR or RAR were incubated with tritiated RA (10 nM), fractionated and analysed as described in FIG. 3A. Note that the low MW peak of RA-binding capacity (coinciding with RAR) in p53-RAR cells derives from expression of wild type RAR, starting from its own ATG-conserved in the p53-RAR expression vector (see below)-. (B) Fractions from gel filtration of in vitro translated, ^35-S labelled p53-RAR were analysed by SDS-PAGE, followed by autoradiography. Note that two products are generated in the reaction: full-length p53-RAR, fractionating in oligomeric complexes, and RAR, starting from the internal ATG site of RAR and fractionating as a monomer. (C-D) Effects of RAR chimeric proteins on differentiation of murine hematopoietic progenitors. Lin-cells were transduced with the indicated retroviral vectors and then sorted by FACS on the basis of their GFP positivity. In the case of ΔCC-PML-RAR, GFP+ cells were sorted in GFP^high or GFP^low expressors. After sorting, cells were either plated in differentiation medium in the absence or in the presence of RA (3 nM or 1 μM) (C), or analysed by Western blot (D). C, control, P-R, PML-RAR, ΔCC-P-R, ΔCC-PML-RAR, G-PR, GFP-PML-RAR, G-ΔCCPR, GFP-ΔCC-PML-RAR, G-p53R, GFP-p53-RAR. As described, RA delays myeloid differentiation of control cells, leading to a maximum 20-30% reduction in the number of Mac1 + cells (Purton et al., 1999). This effect is counter-acted by expression of PML-RAR and by high levels of ΔCC-PML-RAR. […]
The capacity of p53-RAR to block differentiation was evaluated using primary hematopoietic precursors purified from murine bone marrow on the basis of the absence of surface differentiation antigens (lin-see methods). […] After 8-10 days, colonies were pooled and analysed for the expression of myeloid differentiation markers (Mac-1 and GR-1). […]

Row | Molecule | binding to GST-NCoR (GST-NCoR) | differentiation block ([1]; Mac-1, 8-10 days in methylcellulose) | effect on differentiation of transduced progenitors [1]
1 | PML-RAR: leukaemia-associated chimeric transcription factor, fusion of PML and RAR (protein) MEPAPARSPRPQQDPARPQEPTMPPPETPSEGRQPSPSPSPTERAPASEEEFQFLRCQQCQAEAKCPKLLPCLHTLCSGCLEASGMQCPICQAPWPLGADTPALDNVFFESLQRRLSVYRQIVDAQAVCTRCKESADFWCFECEQLLCAKCFEAHQWFLKHEARPLAELRNQSVREFLDGTRKTNNIFCSNPNHRTPTLTSIYCRGCSKPLCCSCALLDSSHSELKCDISAEIQQRQEELDAMTQALQEQDSAFGAVHAQMHAAVGQLGRARAETEELIRERVRQVVAHVRAQERELLEAVDARYQRDYEEMASRLGRLDAVLQRIRTGSALVQRMKCYASDQEVLDMHGFLRQALCRLRQEEPQSLQAAVRTDGFDEFKVRLQDLSSCITQGKDAAVSKKASPEAASTPRDPIDVDLPEEAERVKAQVQALGLAEAQPMAVVQSVPGAHPVPVYAFSIKGPSYGEDVSNTTTAQKRKCSQTQCPRKVIKMESEEGKEARLARSSPEQPRPSTSKAVSPPHLDGPPSPRSPVIGSEVFLPNSNHVASGAGEAIETQSSSSEEIVPSPPSPPPLPRIYKPCFVCQDKSSGYHYGVSACEGCKGFFRRSIQKNMVYTCHRDKNCIINKVTRNRCQYCRLQKCFEVGMSKESVRNDRNKKKKEVPKPECSESYTLTPEVGELIEKVRKAHQETFPALCQLGKYTTNNSSEQRVSLDIDLWDKFSELSTKCIIKTVEFAKQLPGFTTLTIADQITLLKAACLDILILRICTRYTPEQDTMTFSDGLTLNRTQMHNAGFGPLTDLVFAFANQLLPLEMDDAETGLLSAICLICGDRQDLEQPDRVDMLQEPLLEALKVYVRKRRPSRPHMFPKMLMKITDLRSISAKGAERVITLKMEIPGSMPPLIQEMLENSEGLDTLSGQPGGGGRDGGGLAPPPGSCSPSLSPSSNRSSPATHSP | bound specifically to the beads even at the lowest amounts of GST-NCoR tested | about 50% | strong reduction in their capacity to differentiate
2 | p53-RAR: RAR fused C-terminally to the tetramerization domain present in p53 (protein) GEYFTLQIRGRERFEMFRELNEALELKDAQAGMASNSSSCPTPGGGHLNGYPVPPYAFFFPPMLGGLSPPGALTTLQHQLPVSGYSTPSPATIETQSSSSEEIVPSPPSPPPLPRIYKPCFVCQDKSSGYHYGVSACEGCKGFFRRSIQKNMVYTCHRDKNCIINKVTRNRCQYCRLQKCFEVGMSKESVRNDRNKKKKEVPKPECSESYTLTPEVGELIEKVRKAHQETFPALCQLGKYTTNNSSEQRVSLDIDLWDKFSELSTKCIIKTVEFAKQLPGFTTLTIADQITLLKAACLDILILRICTRYTPEQDTMTFSDGLTLNRTQMHNAGFGPLTDLVFAFANQLLPLEMDDAETGLLSAICLICGDRQDLEQPDRVDMLQEPLLEALKVYVRKRRPSRPHMFPKMLMKITDLRSISAKGAERVITLKMEIPGSMPPLIQEMLENSEGLDTLSGQPGGGGRDGGGLAPPPGSCSPSLSPSSNRSSPATHSP | bound NCoR even at the lowest amounts of GST-NCoR tested | – | strong decrease in the number of Mac1+ and GR1+ cells
